From US20180170984, “SITE-SPECIFIC DNA BASE EDITING USING MODIFIED APOBEC ENZYMES” (Regents of the University of Minnesota, published 2018)

Tests used:
[1] = biological target: APOBEC3A D131T (Homo sapiens, UniProt P31941 SEQ:1-199, D131T); assay: deamination, 50 nM enzyme, 1 h 37 C; settings: tags: myc-His, 293T; label: 3'-fluorescein
Text: (§1) FIGS. 10A-10C provide corroborating biochemical data for human A3A. FIGS. 10A and 10B show DNA cytosine deamination by human A3A (WT, wild-type) and the indicated mutant derivatives (S, substrate; P, product). The corresponding anti-MYC (A3A) and anti-TUBULIN immunoblots indicated similar levels of A3A and soluble extract in each experiment relative to controls (A3A has two bands due to alternative translation initiation from Met1 or Met13). Reactions in FIG. 10A interrogated active site mutants using a 43-nucleotide 5′-TC-containing ssDNA substrate, and reactions in FIG. 10B additionally interrogated the identity of the −1 position (A, C, G, or T) relative to the target cytosine. The results are representative of two independent experiments. FIG. 10C is a series of graphs quantifying product accumulation in dose response experiments for A3A and the indicated D131 derivatives using the same ssDNA substrates as FIG. 10B.
(§2) Recombinant A3A-myc-His and mutant derivatives were expressed in 293T cells and purified as described by nickel affinity chromatography (Stenglein et al., supra; Li et al., supra; and Carpenter et al. 2012, supra). Activity assays were conducted as outlined above, except reactions were initiated by adding 5 μl of enzyme (2-fold dilutions starting at 200 nM) to 5 μl of 50 mM NaCl, 10 mM HEPES buffer (pH 7.4) containing 1.6 μM fluorescently labeled ssDNA (sequences above). Reactions progressed 1 hour at 37° C. and processed and quantified as described above.

[2] = biological target: APOBEC3A D131A (Homo sapiens, UniProt P31941 SEQ:1-199, D131A); assay: deamination, 50 nM enzyme, 1 h 37 C; settings: tags: myc-His, 293T; label: 3'-fluorescein
Sequence of APOBEC3A D131A (P31941 whole entry D131A): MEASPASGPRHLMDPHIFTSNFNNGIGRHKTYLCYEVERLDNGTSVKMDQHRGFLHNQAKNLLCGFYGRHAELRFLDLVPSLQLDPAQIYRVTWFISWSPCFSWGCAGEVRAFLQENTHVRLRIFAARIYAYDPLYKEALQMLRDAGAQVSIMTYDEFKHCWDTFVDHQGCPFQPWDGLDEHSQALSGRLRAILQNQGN
Text: as §1, §2

[3] = biological target: APOBEC3A wild-type (Homo sapiens, UniProt P31941 SEQ:1-199); assay: deamination, 50 nM enzyme, 1 h 37 C; settings: tags: myc-His, 293T; label: 3'-fluorescein
Sequence of APOBEC3A wild-type (P31941 whole entry): as the sequence (P31941 whole entry D131A) above, with A131D counted along it
Text: as §1, §2

[4] = biological target: APOBEC3A D131E (Homo sapiens, UniProt P31941 SEQ:1-199, D131E); assay: deamination, 50 nM enzyme, 1 h 37 C; settings: tags: myc-His, 293T; label: 3'-fluorescein
Sequence of APOBEC3A D131E (P31941 whole entry D131E): as the sequence (P31941 whole entry D131A) above, with A131E counted along it
Text: as §1, §2

[5] = biological target: APOBEC3A E72A (1-195) (Homo sapiens, UniProt P31941 SEQ:1-195, E72A); assay: structure; crystal structure 3.15 Å, PDB 5SWW, U-shaped ssDNA, Zn
Sequence of APOBEC3A E72A (1-195) (P31941 1-195 E72A): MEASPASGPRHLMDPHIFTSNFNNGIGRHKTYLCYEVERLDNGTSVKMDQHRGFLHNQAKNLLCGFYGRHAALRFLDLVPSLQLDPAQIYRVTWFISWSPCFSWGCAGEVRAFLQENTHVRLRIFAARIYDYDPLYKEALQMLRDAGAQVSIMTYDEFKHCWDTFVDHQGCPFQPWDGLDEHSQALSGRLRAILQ
Experimental: Purified A3A and A3Bctd* were mixed with ˜1.5 molar excess ssDNA (see below) at a final protein concentration of 25-30 mg ml⁻¹. The A3A-ssDNA complex crystal was obtained in a sitting drop formed by mixing the complex solution with an equal volume of 0.2 M NaF, 20% (w/v) PEG3350, 0.1 M Bis-Tris propane (pH 6.5), equilibrated via vapor diffusion against the same reservoir solution. The A3Bctd*-ssDNA crystal was obtained similarly, using a reservoir solution consisting of 0.45 M NaI and 20% (w/v) PEG3350. The crystals were mounted directly from the Intelli-Plate 96 (Art Robbins Instruments) and flash cooled in liquid nitrogen using glycerol or ethylene glycol as cryo-protectant. X-ray diffraction data were collected at the Advanced Photon Source Northeastern Collaborative Access Team beamline 24-ID-C using the selenium K-absorption edge wavelength, and the data were processed with XDS (Kabsch, Acta Crystallogr D Biol Crystallogr 66:125-132, 2010). The A3A-DNA complex crystal is in the space group of P2221. […] Using monomeric A3A (pdb 4XXO; Bohn et al., Structure 23:903-911, 2015) as a search model, the molecular replacement calculations by PHASER (McCoy et al., J Appl Crystallogr 40:658-674, 2007) located four copies of A3A in the asymmetric unit. […]

Sequence of APOBEC3A D131T (P31941 whole entry D131T): as the sequence (P31941 whole entry D131A) above, with A131T counted along it

Row | Binder | activity [1] [% product] | activity [2] [% product] | activity [3] [% product] | activity [4] [% product] | binding result [5]
1 | ATTATTATTATTCAAATGGATTTATTTATTTATTTATTTATTT (ssDNA) [-1 TCA substrate] | 96.6 | 3.7 | 98.3 | 27.3 | –
2 | ATTATTATTATCCAAATGGATTTATTTATTTATTTATTTATTT (ssDNA) [-1 CCA substrate] | 67.5 | 10.1 | 42.9 | – | –
3 | ATTATTATTATACAAATGGATTTATTTATTTATTTATTTATTT (ssDNA) [-1 ACA substrate] | 16.6 | 8.7 | 7.6 | 36.6 | –
4 | ATTATTATTATGCAAATGGATTTATTTATTTATTTATTTATTT (ssDNA) [-1 GCA substrate] | 14.2 | 4 | 13 | 30.8 | –
5 | AAAAAAATCGGGAAA (ssDNA) [A3A crystallization ligand] | – | – | – | – | binds
